Results: US20240307509A1, “PLACENTAL ALKALINE PHOSPHATASE FOR STARTING EARLY TREATMENT OF CANCER PATIENTS EXHIBITING NO DETECTABLE LOSS OF BODY AND MUSCLE WEIGHT AS YET TO PREVENT OR REDUCE THE LOSS OF MUSCLE PROTEINS” (MNPHARM SBC, priority 2021, published 2024)
Where “and” joins values, the source holds several entries; their conditions need not be identical. Identical values can stand only once.

Assays:
[1] = system: T47D human estrogen receptor positive breast carcinoma; experiment: Tumor growth and survival of Cyp treated mice bearing T47D breast carcinoma; format: in vivo
Description: T47D estrogen receptor positive human breast cancer cells were from American Tissue Culture Collection (10801 University Boulevard, Manassas, Virginia, 20110-2209, United States).
First generation hybrid BDF1 (C57BL female x DBA/2 male) 6 weeks old, weighing 22-23 grams, specified pathogen free (SPF) hygienic category colonies were used. The animals were kept in macrolon cage at 22-24 0 C° (45-55% humidity), with a lightning regimen of 12/12 h light/dark. The animals had free access to tap water and were fed with a sterilized standard diet (Charles River VRF1, autoclavable, Germany) ad libitum.
T47D mammary tumor pieces (maintained in mouse tail, containing about 1.5×10^6 tumor cells) were implanted subcutaneously into the intrascapular region to develop the tumors. After 15 days, when the tumor-bearing mice were first treated, the sizes of the tumors were in the 0.27-0.34 cm^3 range. PLAP and Cyp were dissolved in 0.9% sodium chloride and applied subcutaneously (PLAP) or intraperitoneally (Cyp) in 50 μl volume. In the first group (n=7), animals received no treatment. In the second group (n=7), mice were administered 120-mg/kg of Cyp on day 15 followed by eleven consecutive treatments on every second day (days 17, 19, 21, 23, 25, 27, 29, 31, 35, 37, and 39) with the same dose. In the third group (n=7), treatment with Cyp (on the same days as in group 2) was accompanied by administration of 7.5 mg per kg of PLAP on days 15, 20, 25, 30, 35, and 40. Tumor volume was measured on days 15, 18, 21, 24, 27, 31, 35, 40, and 46, and body weight was measured on day 46. Then the animals were kept without additional treatment to determine survival rates.

[2] = system: T47D human breast cancer tumor; experiment: Skeletal muscle proteins in the Cyp treated human T47D tumor model; format: in vivo, mice; details: gastrocnemius, day 28; PLAP 7.5 mg per kg subcutaneously days 14, 17, 20, 23, 26; Cyp intraperitoneally days 15-27 every second day
Description: PLAP and Cyp were dissolved in 0.9% sodium chloride and applied subcutaneously (PLAP) or intraperitoneally (Cyp) in […] volume. […] In the fourth and fifth groups mice also received Cyp on days 15, 17, 19, 21, 23, 25, and 27. On day 28, body weights were measured first followed by determining the tumor volumes. After the mice were put to death under anesthesia, the gastrocnemius muscles were excised to determine total proteins by using a Sigma kit.

L6 myoblasts [3] = experiment: Proliferation of L6 myoblasts with or without IGF-1 (MTT assay); format: cell-based; details: serum-free medium, 72 hours; IGF-1 50 nM, rPLAP 150 nM, PLAP 150 nM
Description: L6 myoblasts were grown in 96-well plates in 10% FBS containing DMEM up to 30% confluency. Then the medium was changed to serum-free medium, and after 2 hours, cells were treated with IGF-1 (50 nM), or rPLAP (150 nM), or PLAP (150 nM) in the absence or presence of IGF-1 for 72 hours, followed by the MTT assay (absorbance; A540) as described by others assay [Carmichael, J, De Graff, W.G., Gazdar, A.F., Minna, J.D. and Mitchell, J.B. Evaluation of tetrazolium-based semiautomated colorimetric assay: Assessment of chemosensitivity testing. Cancer Res. 47, 936-942, 1987].

L6 myoblasts [4] = experiment: Proliferation of L6 myoblasts in the presence of myostatin (MTT assay); format: cell-based; details: 96 hours
Description: In this experiment, L6 myoblasts were seeded in 10% serum containing Dulbecco's modified Eagles (DMEM) medium in 96-well plates (n=8 for each treatment). After 24 hours at 30% confluence, the medium was changed to 2% serum-containing medium (0 time) and then treated with 0.25 μg/ml or 1 ug/ml myostatin (MSTN-from the R&D Systems-catalog no. 788-GB-010) in the absence or presence of 25 nM, 100 nM, or 200 nM PLAP for 96 hours. The relative number of viable cells (A540) was determined by the MTT assay [Carmichael, J, De Graff, W.G., Gazdar, A.F., Minna, J.D. and Mitchell, J.B. Evaluation of tetrazolium-based semiautomated colorimetric assay: Assessment of chemosensitivity testing. Cancer Res. 47, 936-942, 1987]. The value measured at 0 time is subtracted from the 96-hour values.

[5] = system: PC-3 human prostate adenocarcinoma tumor; experiment: Subcutaneously administered PLAP in the cachectic PC-3 mouse tumor model; format: in vivo, mice; details: day 28
Source text: PC-3 human prostate cancer cell-derived aggressive tumors are cachectic depending on the mouse strain used for tumor development. In the following experiment, a cachectic mouse model of human prostate tumor was used.
PC-3 human prostate adenocarcinoma tissue pieces (0.1 cm^3 volume) were implanted subcutaneously into the intrascapular region of 6 weeks old female mice [homozygous line of C.B .-171cr scid/scid] to develop the tumors. The mice were kept at specified pathogen free (SPF) hygienic levels. In the first group of mice (7 mice), no tumors were developed (tumor free control). In the second group of mice (7 mice), tumors were developed but remained untreated. In the third group of mice (7 mice), on days 8, 11, 14, 17, 21 and 25 after transplantation of PC-3 tumors, mice were administered 4 mg/kg of PLAP subcutaneously. The weight and total protein content of m. gastrocnemius (using a protein determination kit from Sigma), tumor weight, lean body weight (total weight minus tumor weight), and the weight of abdominal fat tissue were determined on day 28 (after tumor transplantation).

[6] = Spectrophotometric assay of PLAP enzyme activity; format: biochemical; details: 10 mM 4-nitrophenylphosphate, 22° C., pH 9.8; 1 U = 1 umole substrate hydrolyzed/min
Description: PLAP as determined by sodium dodecyl sulfate-polyacrylamide gel electrophoresis (SDS-PAGE). The enzyme activity of PLAP was assayed using a spectroscopic method to monitor the hydrolysis of 4-nitrophenylphosphate (as an increase in absorbance at 410 nm) at room temperature (22° C.) as described in [Chang, G.-G., Shiao, M.-S., Lec, K.-R. and Wu, J.-J., Modification of human placental alkaline phosphatase by periodate-oxidized 1,N6-ethenoadenosine monophosphate. Biochem. J., 272, 683-690, 1990]. Activity analysis of 5-10-μg purified enzyme was performed in 1 mI. incubation volume containing 50 mM Na2CO3/NaHCO3, 10 mM MgCl2, 10 mM 4-nitrophenylphosphate at pII 9.8. The extinction coefficient of 4-nitrophenol was taken as 1.62×10^4 M^−1 cm^−1. An enzyme activity of I U (unit) is defined as 1 umole substrate hydrolyzed/min at 22° C. at pH 9.8. The pure PLAP was further identified by sequence analysis performed by the Mayo Clinic Protein Core Facility (Rochester, MN, US). The specific activity of purified PLAP was 685 Units per mg protein.

[7] = ATP as substrate of alkaline phosphatases (unpublished data); format: biochemical; details: compared to IALP or TNAP
Source text: This invention can also use an alkaline phosphatase (AP) which is a hybrid derivative of two APs. For example, in such a hybrid one critical segment may originate from PLAP accounting for the heat stability, and another segment may originate from a different AP accounting for a higher catalytic phosphatase activity or another useful property. As an example, envisioned in the disclosure, such hybrid may contain up to roughly 50% of the sequence of PLAP providing stability, and up to roughly 50% of the sequence of another human AP providing the catalytic alkaline phosphatase activity. The rationale for using such hybrid is that of the APs, PLAP has by far the greatest stability in the circulation, while other APs may have greater catalytic activities towards some specific substrates.

[8] = purified PLAP, literature (Clubb et al. 1965); cited from earlier work
[9] = Cyp 120 mg/kg intraperitoneally, PLAP 7.5 mg/kg subcutaneously
[10] = numbers in parentheses, n=7 per group
[11] = m. gastrocnemius, PLAP 4 mg/kg subcutaneously on days 8, 11, 14, 17, 21, 25

O.O=P1(N(CCCl)CCCl)NCCCO1 (centres unmarked) [Cyp, 2-[Bis (2-chloroethyl)amino] tetrahydro-2H-1,3,2-oxazaphosphorine 2-oxide monohydrate]
Tumor volume Day 18 ([1]; Cyp 120 mg/kg intraperitoneally every second day from day 15, PLAP 7.5 mg/kg subcutaneously every 5 days): 0.33 ± 0.11 cm^3
Tumor volume Day 21 [1, 9]: 0.56 ± 0.10 cm^3
Tumor volume Day 24 [1, 9]: 0.72 ± 0.20 cm^3
Tumor volume Day 27 [1, 9]: 0.91 ± 0.22 cm^3
Tumor volume Day 31 [1, 9]: 1.06 ± 0.17 cm^3
Tumor volume Day 35 [1, 9]: 1.22 ± 0.32 cm^3
Tumor volume Day 40 [1, 9]: 1.68 ± 0.29 cm^3
Tumor volume Day 46 [1, 9]: 1.82 ± 0.24 cm^3
Survival Mean ([1]; T47D tumor bearing animals, n=7, monohydrate): 49 days and 49.3 days
body weight less compared to the untreated group ([1]; body weight measured on day 46): 1.4%
Tumor volume Day 15 ([1]; day of first treatment, Cyp 120 mg/kg intraperitoneally, PLAP 7.5 mg/kg subcutaneously): 0.30 ± 0.11 cm^3
number of mice alive Day 35 [1, 10]: 7
number of mice alive Day 40 [1, 10]: 7
number of mice alive Day 46 [1, 10]: 5
Survival % ([1]; relative to untreated (None = 100)): 129%
Total Muscle Protein [2]: 11.31 ± 0.43 mg per 100 mg of muscle weight

IGF-1: insulin like growth factor-1 [reference compound]
L6 myoblast proliferation (A540) (minus 0-time value) (L6 myoblasts [3]): 0.280 ± 0.030 A540

Myostatin: myostatin (MSTN) from R&D Systems, catalog no. 788-GB-010 [reference compound]
L6 myoblast proliferation minus 0-time value (A540) (L6 myoblasts [4]; Myostatin 0.25 μg/ml, no PLAP, 2% serum): 0.214 ± 0.032 A540
L6 myoblast proliferation minus 0-time value (A540) (L6 myoblasts [4]; Myostatin 1.0 μg/ml, no PLAP, 2% serum): 0.175 ± 0.030 A540

B1: PLAP: highly purified native placental alkaline phosphatase derived from human placenta via conventional purification methods (protein, UniProt P05187 23-506, looked up)
Alkaline phosphatase, …: IIPVEEENPDFWNREAAEALGAAKKLQPAQTAAKNLIIFLGDGMGVSTVTAARILKGQKKDKLGPEIPLAMDRFPYVALSKTYNVDKHVPDSGATATAYLCGVKGNFQTIGLSAAARFNQCNTTRGNEVISVMNRAKKAGKSVGVVTTTRVQHASPAGTYAHTVNRNWYSDADVPASARQEGCQDIATQLISNMDIDVILGGGRKYMFRMGTPDPEYPDDYSQGGTRLDGKNLVQEWLAKRQGARYVWNRTELMQASLDPSVTHLMGLFEPGDMKYEIHRDSTLDPSLMEMTEAALRLLSRNPRGFFLFVEGGRIDHGHHESRAYRALTETIMFDDAIERAGQLTSEEDTLSLVTADHSHVFSFGGYPLRGSSIFGLAPGKARDRKAYTVLLYGNGPGYVLKDGARPDVTESESGSPEYRQQSAVPLDEETHAGEDVAVFARGPQAHLVHGVQEQTFIAHVMAFAACLEPYTACDLAPPAGTTD
inhibition of tumor growth ([5]; PLAP 4 mg/kg subcutaneously): 32%
loss of lean body weight ([5]; PLAP treated tumor (41% in untreated)): 18%
loss of abdominal fat tissue ([5]; PLAP treated tumor (46% in untreated)): 12%
Tumor Weight ([5]; PLAP 4 mg/kg subcutaneously): 2.9 ± 0.4 g
Muscle Mass [5, 11]: 93 ± 9 mg
Muscle Protein [5, 11]: 13.3 ± 1.3 mg/100 mg of muscle weight
Lean Body Weight ([5]; total weight minus tumor weight, PLAP 4 mg/kg subcutaneously): 25.9 ± 2.8 g
Abdominal Fat Tissue ([5]; weight, PLAP 4 mg/kg subcutaneously): 0.66 ± 0.07 g
Total Muscle Protein [2]: 13.20 ± 0.38 mg per 100 mg of muscle weight
L6 myoblast proliferation (A540) (minus 0-time value) (L6 myoblasts [3]): 0.267 ± 0.025 A540
L6 myoblast proliferation minus 0-time value (A540) (L6 myoblasts [4]; PLAP 25 nM, Myostatin 0.25 μg/ml): 0.325 ± 0.038 A540
L6 myoblast proliferation minus 0-time value (A540) (L6 myoblasts [4]; PLAP 25 nM, Myostatin 1.0 μg/ml): 0.300 ± 0.023 A540
L6 myoblast proliferation minus 0-time value (A540) (L6 myoblasts [4]; PLAP 25 nM, No Myostatin): 0.410 ± 0.025 A540
L6 myoblast proliferation minus 0-time value (A540) (L6 myoblasts [4]; PLAP 100 nM, Myostatin 0.25 μg/ml): 0.430 ± 0.024 A540
L6 myoblast proliferation minus 0-time value (A540) (L6 myoblasts [4]; PLAP 100 nM, Myostatin 1.0 μg/ml): 0.402 ± 0.027 A540
L6 myoblast proliferation minus 0-time value (A540) (L6 myoblasts [4]; PLAP 100 nM, No Myostatin): 0.541 ± 0.022 A540
L6 myoblast proliferation minus 0-time value (A540) (L6 myoblasts [4]; PLAP 200 nM, Myostatin 0.25 μg/ml): 0.542 ± 0.069 A540
L6 myoblast proliferation minus 0-time value (A540) (L6 myoblasts [4]; PLAP 200 nM, Myostatin 1.0 μg/ml): 0.500 ± 0.033 A540
L6 myoblast proliferation minus 0-time value (A540) (L6 myoblasts [4]; PLAP 200 nM, No Myostatin): 0.707 ± 0.032 A540
specific activity [6]: 685 Units per mg protein
ATP as substrate [7]: weak substrate
half-life time in human circulation [8]: about 7 days
